Test results taken from patent US10143747B2, “Breast cancer therapeutics” (IMBA—INSTITUT FÜR MOLEKULARE BIOTECHNOLOGIE GMBH, priority 2010, dated 2018).

What was measured:
[1] = test system: SKBR3 breast cancer cells; experiment: Growth curve of SKBR3 cells, live cell counting; format: cell-based, human; settings: RANKL 1 μg/ml, 3 days
Description: (§1) a, Western blotting for phosphorylated (P) p65 NFκB, total p65 NFκB, phosphorylated (P) IκBα, total IκBα, phosphorylated (P) ERK1/2, total ERK1/2, phosphorylated (P) p38-MAPK, and p38-MAPK in human SKBR3 breast cancer cells in response to RANKL stimulation (1 μg/ml). Data are representative of 3 experiments. b, Growth curve of SKBR3 breast cancer cells cultured in normal growth medium (control, DMEM supplemented with 10% FCS) or in the presence of RANKL (1 μg/ml). Cell numbers were determined by counting live cells (trypan blue-exclusion) over 3 days. c, Onset of palpable mammary tumors in NFATc1^Δmam (n=10) and age matched littermate control (n=16) females treated with MPA pellets and DMBA. Data are shown as percentage of tumor free mice after the last DMBA challenge. No significant difference was found. d, Quantification of NFATc1 mRNA expression in purified mammary epithelial cells (MECs) and MPA-driven mammary tumors from NFATc1^Δmam and littermate control females. mRNA was determined by qRT-PCR. Data are shown as fold change compared to control (+/−sem). n=5 Per group. *P<0.05 (Student's t-test).

[2] = test system: human SKBR3 breast cancer cells; experiment: Soft-Agar Colony Formation Assay (anchorage-independent growth); format: cell-based; settings: RANKL 1 μg/ml
Description: a, Western blotting for phosphorylated (P) IKKα, total IKKα, phosphorylated (P) p65 NFκB, total p65 NFκB, phosphorylated (P) IκBα, and total IκBα in isolated primary mouse mammary gland epithelial cells (MECs) in response to RANKL stimulation (1 μg/ml). β-actin is shown as loading control. b, Western blotting for IKKα, IKKβ, IKKγ, phosphorylated (P) p65 NFκB, total p65 NFκB, phosphorylated (P) IκBα, and total IκBα in pooled late stage mammary adenocarconimas (n=4 for each lane) that developed in control, RANK^Δmam and IKKΔ^Δmam females. β-actin is shown as loading control c, Expression of RANK, CyclinD1, and p21 mRNA in late stage mammary adenocacinomas that developed in control, RANK^Δmam, and IKKα^Δmam females. Expression was determined by qRT-PCR. Data are mean values+/−sem. n=4 per group. d, Soft-Agar Colony Formation Assay. Growth of human SKBR3 breast cancer cells in soft agar in response to stimulation with RANKL (1 μg/ml) or EGF (100 ng/ml). Anchorage-independent, macroscopic colonies formed after 18 days in culture with RANKL, which was prevented by the decoy receptor OPG (1 μg/ml). […] Apoptosis was detected by immunostaining for active Caspase 3. f, Apoptotic nuclei of epithelial cells (arrows) are shown for representative mammary gland sections. Magnifications×40. g, Quantification of mammary epithelial apoptosis. A minimum of 5000 nuclei was counted for each mouse. […]

[3] = test system: human SKBR3 breast cancer cells; experiment: Western blotting of RANKL-stimulated SKBR3 cells; format: cell-based; settings: RANKL 1 μg/ml
Description: as §1
The human epithelial breast tumor cell line SKBR3 and primary non-transformed mouse mammary epithelial cells were left untreated or stimulated with recombinant murine RANKL^ref. 9. Adenocarcinomas were isolated from control and mutant mice and total protein lysates prepared. […]

B1: RANKL: recombinant RANKL protein, ligand of RANK, used as stimulus (1 μg/ml or 1 μg i.p.) (protein, UniProt O35235 139-316, looked up)
Tumor necrosis factor ligand …: FSGAPAMMEGSWLDVAQRGKPEAQPFAHLTINAASIPSGSHKVTLSSWYHDRGWAKISNMTLSNGKLRVNQDGFYYLYANICFRHHETSGSVPTDYLQLMVYVVKTSIKIPSSHNLMKGGSTKNWSGNSEFHFYSINVGGFFKLRAGEEISIQVSNPSLLDPDQDATYFGAFKVQDID
- proliferation of SKBR3 cells [1]: induced NFκB, p38-MAPKs and ERK activation and proliferation
- growth of SKBR3 cells in soft agar [2]: induced growth of SKBR3 cells in soft agar
- NFκB, p38-MAPKs and ERK activation [3]: induced NFκB, p38-MAPKs and ERK activation
